In doi:10.1101/243014, “RNA-binding proteins with mixed charge domains self-assemble and aggregate in Alzheimer’s Disease” (bioRxiv, 2018):
Values joined by “and” are separate entries in the source; they are usually repeats but may differ in a detail not shown here. Equal entries are not always repeated.

B1: LC1 domain (residues 231–308) of rU1-70K (domain or fragment, UniProt P08621 231-308, looked up)
chain: RDRDRDRERERRERSRERDKERERRRSRSRDRRRRSRSRDKEERRRSRERSKDKDRDRKRRSSRSRERARRERERKEE
notes: The GST carrier was kept in BN-PAGE (~65 kDa on SDS-PAGE); also called LC1 alone; mixed charge LC1 domain; source: HEK293, transfected, in lysate
B2: N-terminal domain (residues 1–99) of rU1-70K (domain or fragment, UniProt P08621 1-99, looked up)
chain: MTQFLPPNLLALFAPRDPIPYLPPLEKLPHEKHHNQPYCGIAPYIREFEDPRDAPPPTRAETREERMERKRREKIERRQQEVETELKMWDPHNDPNAQG
notes: U1-70K residues 1-99 (N-terminus); The GST carrier was kept in BN-PAGE (~65 kDa on SDS-PAGE); also called N-terminus (1–99 residues) alone; source: HEK293, transfected, in lysate

Molecular target: the molecule itself
Experiment: native gel or EMSA; blue native PAGE (3-12% NativePAGE Bis-Tris) of 0.8 ug purified protein in loading buffer with 50 mM TCEP, 30 min at room temperature; Coomassie and western blot with Myc antibodies

Row | Protein | stoichiometry N
1 | B1 | 2 and 3 and 4
2 | B2 | 2
